Experiments:
[1] = target: E. coli RNAP core enzyme carrying a hexahistidine-tagged β’ subunit (E. coli) (UniProt P0A8T7)
[2] = target: E. coli RNAP core enzyme carrying a hexahistidine-tagged β’ subunit (E. coli) (UniProt P0A8T7); remark: listed apart in the source

Sequence of UniProt P0A8T7 (P0A8T7 whole entry, looked up): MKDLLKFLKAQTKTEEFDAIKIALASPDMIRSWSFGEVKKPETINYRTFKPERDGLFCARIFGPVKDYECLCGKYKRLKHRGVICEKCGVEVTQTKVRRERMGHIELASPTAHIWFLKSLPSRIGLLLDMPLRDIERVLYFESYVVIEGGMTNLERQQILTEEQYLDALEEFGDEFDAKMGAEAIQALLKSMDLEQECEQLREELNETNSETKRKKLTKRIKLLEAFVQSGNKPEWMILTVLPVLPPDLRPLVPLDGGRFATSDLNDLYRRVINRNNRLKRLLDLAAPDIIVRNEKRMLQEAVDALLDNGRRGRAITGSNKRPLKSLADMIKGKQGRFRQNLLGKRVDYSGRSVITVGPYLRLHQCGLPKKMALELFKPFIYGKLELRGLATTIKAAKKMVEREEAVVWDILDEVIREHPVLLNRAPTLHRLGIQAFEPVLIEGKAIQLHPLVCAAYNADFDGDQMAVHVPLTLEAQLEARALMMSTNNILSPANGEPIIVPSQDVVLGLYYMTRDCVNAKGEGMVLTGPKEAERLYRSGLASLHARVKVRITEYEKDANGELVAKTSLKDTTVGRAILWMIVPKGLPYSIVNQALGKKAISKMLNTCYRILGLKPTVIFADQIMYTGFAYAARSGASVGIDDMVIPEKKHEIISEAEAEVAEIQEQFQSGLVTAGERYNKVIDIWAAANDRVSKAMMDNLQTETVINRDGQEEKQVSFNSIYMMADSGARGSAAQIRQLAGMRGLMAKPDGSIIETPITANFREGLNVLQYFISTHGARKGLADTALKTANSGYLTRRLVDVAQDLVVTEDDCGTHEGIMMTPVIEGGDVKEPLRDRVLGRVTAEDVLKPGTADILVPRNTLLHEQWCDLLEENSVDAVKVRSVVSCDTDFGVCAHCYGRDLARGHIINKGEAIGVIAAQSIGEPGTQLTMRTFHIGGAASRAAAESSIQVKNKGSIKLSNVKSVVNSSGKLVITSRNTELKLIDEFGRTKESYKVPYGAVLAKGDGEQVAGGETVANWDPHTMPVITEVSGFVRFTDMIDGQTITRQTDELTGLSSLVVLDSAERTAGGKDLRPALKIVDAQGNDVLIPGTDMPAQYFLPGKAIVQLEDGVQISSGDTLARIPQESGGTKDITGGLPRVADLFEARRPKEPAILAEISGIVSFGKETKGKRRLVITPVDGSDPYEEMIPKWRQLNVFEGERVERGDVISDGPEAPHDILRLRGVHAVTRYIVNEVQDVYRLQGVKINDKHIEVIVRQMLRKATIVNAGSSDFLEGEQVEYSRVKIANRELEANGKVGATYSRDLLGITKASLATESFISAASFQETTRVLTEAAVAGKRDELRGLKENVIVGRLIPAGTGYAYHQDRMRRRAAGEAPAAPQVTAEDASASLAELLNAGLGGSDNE

B1: Nun protein of HK022 phage (natural protein)
chain: VKKTIYVNPDSGQNRKVSDRGLTSRDRRRIARWEKRIAYALKNGVTPGFNAIDDGPEYKINEDPMDKVDKALATPFPRDVEKIEDEKYEDVMHRVVNHAHQRNPNKKWS
[1]
  apparent Vmax of pyrophosphorolysis of TEC U10 with 1 μM Nun (15.7 min^-1 without Nun); [PPi] 10 μM to 2.5 mM: 160 min⁻¹
[2]
  apparent pyrophosphorolysis rate of TEC U10 after pre-incubation with 1 μM Nun (0.21 s^-1 without Nun); 2.5 mM PPi, 5 mM MgCl2: 2.4 s⁻¹

— paper PMC6009650
